Simoa limit of detection and Kd data for 4 substances are collected here from patent US20250355001A1, “METHOD FOR DETECTING A TAU PROTEIN FRAGMENT IN A SAMPLE” (GTINVENT LIMITED, priority 2022, published 2025).

Assay [1] deals with full length human tau protein 2N4R (hT40) (human) (UniProt P10636). Put plainly: Simoa sandwich, capture CB7, biotinylated detector.
Assay [2] shares this target. In words: Simoa sandwich, capture S1D12, biotinylated detector.
Assay [3] shares this target. Put plainly: Simoa sandwich, capture Tau12, biotinylated detector.
Assay [4] shares this target. Put plainly: Simoa sandwich, capture S1G2, biotinylated detector.
Assay [5] has the same target. Put plainly: SPR, hT40 immobilised, mAb analyte. In general terms: SPR reads the build-up and loss of mass on a sensor chip optically.

Broadly, the Kd is the concentration at which binding is half-saturated. Lower therefore signals a tighter complex.

Sequence of full length human tau protein 2N4R (hT40) (human) (P10636 other isoform, or with tags, fused parts or gaps limits assumed): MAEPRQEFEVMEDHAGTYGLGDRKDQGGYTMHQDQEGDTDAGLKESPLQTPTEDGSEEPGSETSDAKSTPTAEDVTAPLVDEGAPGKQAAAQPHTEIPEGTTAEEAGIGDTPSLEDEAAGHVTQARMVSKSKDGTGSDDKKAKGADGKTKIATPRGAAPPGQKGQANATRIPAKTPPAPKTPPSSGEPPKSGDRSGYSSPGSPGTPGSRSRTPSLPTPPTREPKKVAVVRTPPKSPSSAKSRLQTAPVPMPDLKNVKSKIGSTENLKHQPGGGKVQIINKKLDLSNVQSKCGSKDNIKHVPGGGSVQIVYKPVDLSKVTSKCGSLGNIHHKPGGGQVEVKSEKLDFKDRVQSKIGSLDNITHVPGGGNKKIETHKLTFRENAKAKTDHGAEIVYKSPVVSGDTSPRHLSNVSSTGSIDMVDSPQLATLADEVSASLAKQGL

Turning to BT2 (antibody), the Simoa limit of detection in assay [1] is 0.75 pg/mL; in assay [2], 0.32 pg/mL.

In the case of HT7 (antibody), the Simoa limit of detection was 2.2 pg/mL in assay [3], 2.2 pg/mL in assay [1], 0.32 pg/mL in assay [2] and 0.32 pg/mL in assay [4].

With Tau12 mAb (antibody), the Simoa limit of detection worked out at 0.75 pg/mL in assay [2] and 1.6 pg/mL in assay [4]. In addition, the Kd in assay [5] was found to be 1.44 nM.

For the substance Tau46 (antibody), the Simoa limit of detection in assay [1] and in assay [4] was 2.2 pg/mL in each case.
